Results on three molecules are retold here after patent US20210300999A1 (VANDERBILT UNIVERSITY, published 2021).

The target of assay [1] is SARS-CoV-2 Spike trimer (Table A) (SARS-CoV-2, UniProt P0DTC2 14-1208). As to the kind of experiment: ELISA, purified IgG.
The target in assay [2] is T1, SARS-CoV-2 prefusion-stabilized trimeric spike ectodomain (S2Pecto) (SARS-CoV-2, UniProt P0DTC2 14-1213; P10104 458-484). As to the kind of experiment: ELISA on coated antigen.
Assay [3] concerns the target T1, SARS-CoV-2 prefusion-stabilized …. As to the kind of experiment: hACE2 blocking ELISA on coated S2Pecto; competitor hACE2.

B1: COV2-2514 (antibody, V domains shown)
VH: EVQLVESGGGVVRPGGSLRLSCAASGFIFDDYDMTWVRQAPGKGLEWVSGINWNGGSTGYADSVKGRFTISRDNAKNSLYLQMNSLRAEDTALYHCAVIMSPIPRYSGYDWAGDAFDIWGQGTMVTVSS
VL: SSELTQDPAVSVALGQTVRITCQGDSLRSYYASWYQQKPGQVPILVIYDKNNRPSGIPDRFSGSSSGNTASLTITGAQAEDEADYYCNSRDSSGNAVVFGGGTKLTVL
Regarding B1, the “ELISA OD 450 nm” value in assay [1] amounted to 3.56 OD 450 nm.

B2: COV2-2094 (antibody, V domains shown)
VH: B1 VH
VL: B1 VL
Take B2: in assay [1], the “ELISA OD 450 nm” value is 4.3 OD 450 nm. In assay [2], this molecule displayed an EC50 of 0.0018 µg/mL. The IC50 in assay [3] was determined as 0.053 µg/mL.

B3: COV2-3025 (antibody, V domains shown)
VH: EVQLVQSGPEVKKPGTSVKVSCKASGFTFMSSAVQWVRQARGQRLEWIGWIVIGSGNTNYAQKFQERVTITRDMSTSTAYMELSSLRSEDTAVYYCAAPYCSSISCNDGFDIWGQGTMVTVSS
VL: EIVLTQSPGTLSLSPGERVTLSCRASQSVSSSYLAWYQQKPGQAPRLLIYGASSRATGIPDRFSGSGSGTDFTLTISRLEPEDFAVYYCQHYGSSRGWTFGQGTKVEIK
For B3, the “ELISA OD 450 nm” value in assay [1] was 3.7 OD 450 nm. Moreover, a half-maximal response in assay [2] (EC50) required 0.0011 µg/mL. In assay [3], this molecule showed a concentration for half-maximal inhibition (IC50) of 0.041 µg/mL.
